# Measured values as given in patent US20050100554A1 (published 2005).
# T1: hypothetical protein FLJ20259 (human, UniProt Q2TAL8 1-776)
# T1 construct: also called cbe_1469980
# T1 sequence: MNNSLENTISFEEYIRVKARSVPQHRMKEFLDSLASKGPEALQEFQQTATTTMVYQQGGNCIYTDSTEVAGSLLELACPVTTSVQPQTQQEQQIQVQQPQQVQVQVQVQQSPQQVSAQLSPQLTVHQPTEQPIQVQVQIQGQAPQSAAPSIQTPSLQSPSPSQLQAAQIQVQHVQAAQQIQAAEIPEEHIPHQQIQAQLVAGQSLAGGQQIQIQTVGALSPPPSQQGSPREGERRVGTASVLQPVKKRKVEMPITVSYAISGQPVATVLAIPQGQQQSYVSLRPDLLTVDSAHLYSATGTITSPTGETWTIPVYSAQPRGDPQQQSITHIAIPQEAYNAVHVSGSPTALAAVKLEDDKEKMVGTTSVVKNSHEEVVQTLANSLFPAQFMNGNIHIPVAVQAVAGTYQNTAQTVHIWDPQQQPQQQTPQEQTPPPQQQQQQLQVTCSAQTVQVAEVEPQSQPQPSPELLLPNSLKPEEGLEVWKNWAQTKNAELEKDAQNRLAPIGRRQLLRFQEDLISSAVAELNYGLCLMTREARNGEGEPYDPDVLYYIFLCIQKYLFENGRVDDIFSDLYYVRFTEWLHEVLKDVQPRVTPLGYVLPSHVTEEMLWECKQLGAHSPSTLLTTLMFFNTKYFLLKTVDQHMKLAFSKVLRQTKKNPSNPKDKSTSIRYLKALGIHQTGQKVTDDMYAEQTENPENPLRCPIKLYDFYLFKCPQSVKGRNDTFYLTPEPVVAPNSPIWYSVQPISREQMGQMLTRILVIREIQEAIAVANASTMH
# T2: testis-specific protein NYD-TSP1 (human, UniProt Q9BXG8 1-430)
# T2 construct: also called Hs.98226; cbe_3826540
# T2 sequence: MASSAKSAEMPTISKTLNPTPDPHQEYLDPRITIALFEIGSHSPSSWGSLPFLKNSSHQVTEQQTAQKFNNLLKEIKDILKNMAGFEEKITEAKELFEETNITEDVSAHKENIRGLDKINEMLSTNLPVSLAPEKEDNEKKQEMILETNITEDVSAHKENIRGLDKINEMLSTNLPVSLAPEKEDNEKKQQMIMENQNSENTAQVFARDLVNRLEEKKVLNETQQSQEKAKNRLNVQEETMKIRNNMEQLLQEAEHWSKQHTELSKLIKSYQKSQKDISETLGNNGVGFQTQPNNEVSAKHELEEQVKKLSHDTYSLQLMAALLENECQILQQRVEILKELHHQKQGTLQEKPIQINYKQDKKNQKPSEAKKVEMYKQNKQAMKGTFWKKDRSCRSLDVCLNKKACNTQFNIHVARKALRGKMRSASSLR
# T3: EphB1 (human, UniProt P54762 18-984)
# T3 construct: also called cbe_3810791
# T3 sequence: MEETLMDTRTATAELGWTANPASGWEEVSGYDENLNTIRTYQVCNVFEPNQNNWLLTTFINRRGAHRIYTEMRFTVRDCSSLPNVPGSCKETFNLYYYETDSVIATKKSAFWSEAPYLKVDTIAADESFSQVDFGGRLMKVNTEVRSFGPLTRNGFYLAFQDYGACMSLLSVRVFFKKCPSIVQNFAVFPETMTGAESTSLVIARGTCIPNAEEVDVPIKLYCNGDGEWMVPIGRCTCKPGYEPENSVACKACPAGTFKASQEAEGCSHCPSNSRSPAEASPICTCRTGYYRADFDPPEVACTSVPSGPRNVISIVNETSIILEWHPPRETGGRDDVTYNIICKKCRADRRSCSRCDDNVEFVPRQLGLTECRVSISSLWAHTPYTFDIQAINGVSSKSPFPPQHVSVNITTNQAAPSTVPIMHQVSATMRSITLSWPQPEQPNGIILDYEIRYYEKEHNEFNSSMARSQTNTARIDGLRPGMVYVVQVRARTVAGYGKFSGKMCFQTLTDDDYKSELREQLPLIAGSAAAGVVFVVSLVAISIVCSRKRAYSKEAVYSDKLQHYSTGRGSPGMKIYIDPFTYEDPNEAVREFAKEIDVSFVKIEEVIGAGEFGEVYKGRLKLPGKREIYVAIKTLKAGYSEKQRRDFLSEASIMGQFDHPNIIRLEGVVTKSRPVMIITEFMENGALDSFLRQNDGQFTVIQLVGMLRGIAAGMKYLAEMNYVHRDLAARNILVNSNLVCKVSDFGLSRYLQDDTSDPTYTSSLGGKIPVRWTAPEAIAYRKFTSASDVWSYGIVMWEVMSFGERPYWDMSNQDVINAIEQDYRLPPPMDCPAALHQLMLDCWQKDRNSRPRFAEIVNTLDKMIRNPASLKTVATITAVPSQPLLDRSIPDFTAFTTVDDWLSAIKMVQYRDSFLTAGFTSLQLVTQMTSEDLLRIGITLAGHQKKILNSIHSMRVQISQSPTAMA
# T4: pumilio homolog 1 (Drosophila) (human, UniProt Q14671 2-1186)
# T4 construct: also called PUM1; cbe_4540466
# T4 sequence: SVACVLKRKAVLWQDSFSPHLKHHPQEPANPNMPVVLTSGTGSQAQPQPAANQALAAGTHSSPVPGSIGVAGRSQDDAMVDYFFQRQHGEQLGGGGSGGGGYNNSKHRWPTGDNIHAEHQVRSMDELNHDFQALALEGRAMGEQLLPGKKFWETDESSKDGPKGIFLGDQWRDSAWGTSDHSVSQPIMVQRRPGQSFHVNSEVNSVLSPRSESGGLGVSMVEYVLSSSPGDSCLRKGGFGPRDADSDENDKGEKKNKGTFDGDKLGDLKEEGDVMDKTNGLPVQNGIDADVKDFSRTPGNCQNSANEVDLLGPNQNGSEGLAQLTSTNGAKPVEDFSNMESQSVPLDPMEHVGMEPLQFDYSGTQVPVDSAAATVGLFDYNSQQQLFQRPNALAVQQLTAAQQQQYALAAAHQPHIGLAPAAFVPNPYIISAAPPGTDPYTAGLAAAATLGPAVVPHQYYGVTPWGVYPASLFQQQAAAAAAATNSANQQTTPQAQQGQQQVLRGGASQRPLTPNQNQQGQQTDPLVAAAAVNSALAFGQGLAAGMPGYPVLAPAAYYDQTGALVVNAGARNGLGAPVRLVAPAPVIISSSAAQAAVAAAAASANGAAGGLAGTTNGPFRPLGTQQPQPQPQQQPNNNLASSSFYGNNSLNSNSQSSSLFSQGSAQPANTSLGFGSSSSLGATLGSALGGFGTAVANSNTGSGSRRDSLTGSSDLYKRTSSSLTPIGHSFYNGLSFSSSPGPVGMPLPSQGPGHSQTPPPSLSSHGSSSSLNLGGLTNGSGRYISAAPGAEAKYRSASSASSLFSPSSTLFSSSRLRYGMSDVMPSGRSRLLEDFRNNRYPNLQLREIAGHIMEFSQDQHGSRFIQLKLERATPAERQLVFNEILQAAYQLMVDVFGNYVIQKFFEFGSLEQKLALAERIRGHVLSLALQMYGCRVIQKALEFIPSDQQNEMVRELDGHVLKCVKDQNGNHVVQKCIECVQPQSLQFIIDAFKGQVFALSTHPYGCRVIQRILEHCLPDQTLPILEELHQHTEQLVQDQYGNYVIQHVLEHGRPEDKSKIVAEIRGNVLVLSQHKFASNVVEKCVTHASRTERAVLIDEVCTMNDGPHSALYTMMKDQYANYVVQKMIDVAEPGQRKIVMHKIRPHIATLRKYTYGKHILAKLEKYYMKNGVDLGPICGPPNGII
# B1: Human Papillomavirus 1a E2 (other)
# chain: MENLSSRLDLLQEQLMNLYEQDSKLIEDQIKQWNLIRQEQVLFHFARKNGVMRIGLQAVPSLASSQEKAKTAIEMVLHLESLKDSPYGTEDWSLQDTSRELFLAPPAGTFKKSGSTLEVTYDNNPDNQTRHTIWNHVYYQNGDDVWRKVSSGVDAVGVYYLEHDGYKNYYVLFAEEASKYSTTGQYAVNYRGKRFTNVMSSTSSPRAAGAPAVHSDYPTLSESDTAQQSTSIDYTELPGQGETSQVRQRQQKTPVRRRPYGRRRSRSPRGGGRREGESTPSRTPGSVPSARDVGSIHTTPQKGHSSRLRRLLQEAWDPPVVCVKGGANQLKCLRYRLKASTQVDFDSISTTWHWTDRKNTERIGSARMLVKFIDEAQREKFLERVALPRSVSVFLGQFNGS
# notes: also called HPV 1a E2; cbe_251917
# B2: Prey1053670 (other)
# chain: MSSDERKAFLQFTTGCSTLPPGGLANLHPRLTVVRKVDATDASYPSVNTCVHYLKLPEYSSEEIMRERLLAATMEKGFHLN
# notes: also called Homo sapiens, Similar to CG5604 gene product, clone MGC:11330; cbe_3606990
# B3: Human Papillomavirus 1a L2 (other)
# chain: MYRLRRKRAAPKDIYPSCKISNTCPPDIQNKIEHTTIADKILQYGSLGVFLGGLGIGTARGSGGRIGYTPLGEGGGVRVATRPTPVRPTIPVETVGPSEIFPIDVVDPTGPAVIPLQDLGRDFPIPTVQVIAEIHPISDIPNIVASSTNEGESAILDVLRGNATIRTVSRTQYNNPSFTVASTSNISAGEASTSDIVFVSNGSGDRVVGEDIPLVELNLGLETDTSSVVQETAFSSSTPIAERPSFRPSRFYNRRLYEQVQVQDPRFVEQPQSMVTFDNPAFEPELDEVSIIFQRDLDALAQTPVPEFRDVVYLSKPTFSREPGGRLRVSRLGKSSTIRTRLGTAIGARTHFFYDLSSIAPEDSIELLPLGEHSQTTVISSNLGDTAFIQGETAEDDLEVISLETPQLYSEEELLDTNESVGENLQLTITNSEGEVSILDLTQSRVRPPFGTEDTSLHVYYPNSSKGTPIINPEESFTPLVIIALNNSTGDFELHPSLRKRRKRAYV
# notes: also called HPV 1a L2; cbe_252041
# B4: RIL (other)
# chain: MPHSVTLRGPSPWGFRLVGGRDFSAPLTISRVHAGSKAALAALCPGDLIQAINGESTELMTHLEAQNRIKGCHDHLTLSVSRPEGRSWPSAPDDSKAQAHRIHIDPEIQDGSPTTSRRPSGTGTGPEDGRPSLGSPYGQPPRFPVPHNGSSEATLPAQMSTLHVSPPPSADPARGLPRSRDCRVDLGSEVYRMLREPAEPVAAEPKQSGSFRYLQGMLEAGEGGDWPGPGGPRNLKPTASKLGAPLSGLQGLPECTRCGHGIVGTIVKARDKLYHPECFMCSDCGLNLKQRGYFFLDERLYCESHAKARVKPPEGYDVVAVYPNAKVELV
# notes: also called cbe_4269628
# Columns and labels:
# [1] = target: T1, hypothetical protein FLJ20259; assay: Y2H; INT ID 411
# [2] = target: T5, ribosomal protein S10 (human, UniProt P46783 1-165); assay: Y2H; INT ID 412
# T5 construct: also called RPS10; cbe_2826346
# [3] = target: T6, ankylosis, progressive homolog (mouse) (human, UniProt Q9HCJ1 1-492); assay: Y2H; INT ID 417
# T6 construct: also called ANKH; cbe_3641816
# T6 sequence (Q9HCJ1 whole entry): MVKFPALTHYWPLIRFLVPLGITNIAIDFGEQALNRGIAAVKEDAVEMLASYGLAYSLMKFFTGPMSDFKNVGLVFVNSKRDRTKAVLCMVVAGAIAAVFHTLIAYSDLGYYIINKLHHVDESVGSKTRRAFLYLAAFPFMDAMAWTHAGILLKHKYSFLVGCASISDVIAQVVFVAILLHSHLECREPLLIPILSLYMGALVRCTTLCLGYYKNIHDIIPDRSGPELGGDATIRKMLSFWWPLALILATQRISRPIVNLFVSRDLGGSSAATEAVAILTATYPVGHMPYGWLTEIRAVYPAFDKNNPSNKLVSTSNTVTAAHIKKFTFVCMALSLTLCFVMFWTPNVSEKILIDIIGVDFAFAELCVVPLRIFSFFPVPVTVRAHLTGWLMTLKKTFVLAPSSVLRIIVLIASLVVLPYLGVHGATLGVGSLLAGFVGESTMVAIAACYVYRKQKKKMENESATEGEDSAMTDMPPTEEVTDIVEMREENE
# [4] = target: T2, testis-specific protein NYD-TSP1; assay: Y2H; INT ID 418
# [5] = target: T7, GNB2L1 (human, UniProt P63244 1-317); assay: Y2H; INT ID 420
# T7 construct: also called cbe_4269834
# [6] = target: B3; assay: Y2H; INT ID 446
# [7] = target: T3, EphB1; assay: Y2H; INT ID 448
# [8] = target: T8, GSN (human, UniProt P06396 28-782); assay: Y2H; INT ID 449
# T8 construct: also called cbe_4248793
# T8 sequence (P06396 28-782 limits assumed): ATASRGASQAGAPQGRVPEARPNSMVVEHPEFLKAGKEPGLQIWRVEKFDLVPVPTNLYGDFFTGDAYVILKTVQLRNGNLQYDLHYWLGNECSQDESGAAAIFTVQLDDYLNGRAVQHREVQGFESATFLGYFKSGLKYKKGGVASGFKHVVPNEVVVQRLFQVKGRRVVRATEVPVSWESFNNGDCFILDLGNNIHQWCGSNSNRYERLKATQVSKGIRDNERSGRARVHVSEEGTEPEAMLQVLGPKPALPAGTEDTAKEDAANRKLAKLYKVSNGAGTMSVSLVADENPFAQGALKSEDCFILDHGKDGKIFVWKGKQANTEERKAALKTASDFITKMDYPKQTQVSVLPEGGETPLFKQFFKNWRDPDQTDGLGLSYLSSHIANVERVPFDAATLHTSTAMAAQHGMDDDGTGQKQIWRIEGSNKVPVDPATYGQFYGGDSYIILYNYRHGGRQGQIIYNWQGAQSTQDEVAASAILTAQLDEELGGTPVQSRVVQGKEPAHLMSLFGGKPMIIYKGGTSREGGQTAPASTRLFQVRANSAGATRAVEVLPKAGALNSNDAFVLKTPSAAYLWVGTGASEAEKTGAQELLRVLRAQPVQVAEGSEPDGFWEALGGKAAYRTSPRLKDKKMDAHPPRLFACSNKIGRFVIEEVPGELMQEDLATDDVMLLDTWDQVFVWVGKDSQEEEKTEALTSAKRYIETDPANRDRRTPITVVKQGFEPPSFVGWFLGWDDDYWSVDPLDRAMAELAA
# [9] = target: T4, pumilio homolog 1 (Drosophila); assay: Y2H; INT ID 452
# [10] = target: B3; assay: Y2H; INT ID 451
binder,measurement,setting,value
B1,binding result,[1],binds
same,binding result,[2],binds
same,binding result,[3],binds
same,binding result,[4],binds
same,binding result,[5],binds
B2,binding result,[6],binds
B3,binding result,[7],binds
same,binding result,[8],binds
same,binding result,[9],binds
B4,binding result,[10],binds
